According to patent US8637043B2, “Compositions useful as ligands for the formyl peptide receptor like 1 receptor and methods of use thereof” (Chemocentryx, Inc., priority 2001, dated 2014):
“Also recorded” adds a separate entry of the source. Marks after values point to notes of the source that are not given here. Ends that are not written are not given here.

What was measured:
mononuclear cells = assay: Mononuclear cell infiltration into the dermis after intradermal injection; format: in vivo, Rhesus macaques; conditions: for cell infiltration, in words: summary of Table 18
Experimental: Different amounts (8, 20, or 60 μg in 100 μl PBS) of different polypeptides (see Table 18) were injected intradermally in Rhesus macaques under anesthesia. Twenty-four and 48 hours later, 6 mm skin punch biopsies were taken using aseptic technique and then bisected. One portion of the biopsy was embedded in OCT compound, flash frozen in liquid nitrogen and stored at −70° C. The other portion was immersed in formalin and embedded in paraffin wax; subsequently, sections cut on a microtome were stained with hematoxylin and eosin and then microscopically examined for cell infiltration into the dermis (Table 18). As a negative control, monkeys were injected with PBS lacking any polypeptides.
Mononuclear cell infiltration was scored on a scale of 0 to 5:0, very mild perivascular mononuclear inflammatory infiltration throughout the dermis; 1, a mild perivascular mononuclear inflammatory infiltrate seen throughout the dermis; 2, a mild/moderate perivascular mononuclear inflammatory infiltrate seen throughout the dermis; 3, a moderate perivascular mononuclear inflammatory infiltrate seen throughout the dermis; 4, an extensive perivascular mononuclear inflammatory infiltrate seen throughout the dermis; 5, a florid perivascular mononuclear inflammatory infiltrate seen throughout the dermis. intermediate scores are indicates, e.g., “⅔” represents a score between 2 and 3.

human FPRL1 = molecular target: T1, human FPRL1 (Homo sapiens, UniProt P25090); assay: Migration of FPRL1-L1.2 cells; format: cell-based; conditions: for migration of FPRL1 expressing cells: FPRL1-L1.2 cells, ChemoTx
T1 construct: Full length cDNA encoding FPRL1 was cloned, using the polymerase chain reaction (PCR), from genomic DNA isolated from undifferentiated HL-60 cells; expressed in transfected cells; linearized FPRL1/pcDNA3.1, electroporation
T1 sequence (P25090 1-351): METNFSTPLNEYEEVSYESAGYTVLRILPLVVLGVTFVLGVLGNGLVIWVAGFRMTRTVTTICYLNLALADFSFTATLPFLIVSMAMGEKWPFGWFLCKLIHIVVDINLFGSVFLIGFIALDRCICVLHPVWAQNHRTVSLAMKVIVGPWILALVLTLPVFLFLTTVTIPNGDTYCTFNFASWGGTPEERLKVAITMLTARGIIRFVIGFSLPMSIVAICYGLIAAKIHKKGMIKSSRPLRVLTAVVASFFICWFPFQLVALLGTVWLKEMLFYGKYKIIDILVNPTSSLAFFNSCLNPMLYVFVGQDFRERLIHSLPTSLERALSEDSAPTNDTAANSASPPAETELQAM
Experimental: (§1) Migration assays were performed on monocytes and neutrophils. Human monocytes and neutrophils (prepared as in Exampe 2) were harvested and resuspended in chemotaxis medium (CM). The CM consisted of Hank's buffered salt solution (Gibco, Mass.) containing CaCl2 (1 mM) and MgSO4 (1 mM) with added 0.1% BSA (Sigma, St. Louis, Mo.). The assays were performed in 96-well ChemoTx® microplates (Neuroprobe, Mass.). Leukotactin, MlP-1α and chemokines (CKβ8(1-99), CKβ8(25-99), CKβ8-1(1-116) or CKβ8-1(25-116), prepared as in Example 1) were added to the lower wells (final volume 29 μL), and 20 μL of cell suspension (5×10^6 cells/mL for monocytes; 2.5×10^6 cells/mL for neutrophils) added to the polycarbonate filters (5 μm pore size for monocytes; 3 μm pore size for neutrophils). After incubation for 90 min (37° C., 100% humidity, 5% CO2), cells were removed from the upper surface of the filter by scraping. Cells that migrated into the lower chamber were quantified using the Quant cell proliferation assay kit (Molecular Probes, Oreg.).
The ability of CKβ8-1 (25-116) to elicit the migration of the FPRL1 expressing cells was examined. Test conditions were as in Example 5.
The chemotactic activity of chemokines (CKβ8(1-99) and CKβ8(25-99), SHAAGtides (SEQ ID NO:1 and SEQ ID NO:2) and W peptides 1 and 2 (obtained as in Example 6) on FPRL1-L1.2 cells was determined in migration assays. The chemokines were prepared as in Example 1. The SHAAGtide sequences SEQ ID NO:1 and SEQ ID NO:2 were prepared as in Example 8. FPRL1-L1.2 cells were prepared as in Example 6.
The migration assays were performed in 96-well ChemoTx® microplates (Neuroprobe) using the protocol described in Example 5.

human neutrophils = assay: Migration assay (ChemoTx), human neutrophils; format: cell-based; conditions: 90 min, 100 nM
Experimental: as §1, with “Leukotactin, MlP-1α and chemokines (CKβ8(1-99), CKβ8(25-99), CKβ8-1(1-116) or CKβ8-1(25-116), prepared as in Example 1) were added to the lower wells (final volume 29 μL), and 20 μL of cell suspension (5×10^6 cells/mL for monocytes; 2.5×10^6 cells/mL for neutrophils) added to the polycarbonate filters (5 μm pore size for monocytes; 3 μm pore size for neutrophils).” left out
The above peptides were prepared as in previous examples.

CCR1 = molecular target: T2, CCR1 (Homo sapiens, UniProt P32246); assay: 125I-MIP-1α binding competition, HEK293-CCR1 cells
T2 construct: full length cDNA encoding CCR1 was cloned by the polymerase chain reaction (PCR) from genomic DNA isolated from human peripheral blood cells; expressed in transfected cells; pcDNA3.1 vector)
T2 sequence (P32246 1-355): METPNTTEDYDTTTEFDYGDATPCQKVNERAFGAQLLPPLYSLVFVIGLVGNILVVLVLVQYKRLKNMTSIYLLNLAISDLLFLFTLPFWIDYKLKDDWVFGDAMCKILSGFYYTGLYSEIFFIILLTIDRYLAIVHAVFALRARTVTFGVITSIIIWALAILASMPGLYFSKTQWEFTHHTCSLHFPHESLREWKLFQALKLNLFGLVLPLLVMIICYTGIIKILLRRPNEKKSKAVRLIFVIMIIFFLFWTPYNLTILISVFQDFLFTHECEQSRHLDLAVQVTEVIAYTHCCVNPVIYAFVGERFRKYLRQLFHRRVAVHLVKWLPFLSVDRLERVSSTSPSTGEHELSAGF
Experimental: The binding characteristics of CCL23 variants was compared in human CCR1 expressing cells. […] Reactions mixtures were aspirated onto PEI-treated GF/B glass filters using a cell harvester (Packard). The filters were washed twice (25 mM HEPES, 500 mM NaCl, 1 mM CaCl2, 5 mM MgCl2, adjusted to pH 7.1). Scintillant (MicroScint-10; 35 μl) was added to dried filters and the filiters counted in a Packard Topcount scintillation counter. Data were analyzed and plotted using Prism software (GraphPad Software, San Diego, Calif.).

[1] = 60 μg intradermally, 24 hours, scale 0 (very mild) to 5 (florid)

Molecule | Mononuclear cell infiltration score (mononuclear cells; 8 μg, 24 hours) | Mononuclear cell infiltration score (mononuclear cells; 8 μg, 48 hours) | Mononuclear cell infiltration score (mononuclear cells; 20 μg, 24 hours) | Mononuclear cell infiltration score (mononuclear cells; 20 μg, 48 hours) | Mononuclear cell infiltration score (mononuclear cells; [1]) | Mononuclear cell infiltration score (mononuclear cells; 60 μg, 48 hours) | cell infiltration, in words (mononuclear cells) | migration of FPRL1 expressing cells (human FPRL1) | migration of neutrophils (human neutrophils) | IC50 increase of truncated variant versus full-length variant (CCR1; HEK293-CCR1) | migration of FPRL1 expressing cells (human FPRL1; listed as CKβ8-1 (25-116)) | EC50 (human FPRL1; FPRL1 expressing L1.2 cells, read-out: half-maximal cell migration) [nM] | migration of neutrophils (human neutrophils; listed as CKβ8-1 (25-116)) | fold less potency than CKβ8(1-99) (CCR1; displacement of bound 125I-MIP-1α from CCR1)
MLWRRKIGPQMTLSHAAY [SEQ ID NO: 6] | 0 | 0 | 2* | 0 | 0 | 0 | moderately strong infiltration in one of the two animals | – | – | – | – | – | – | –
MLWRRKIGPQMTLSHAAG [SEQ ID NO: 1] | – | – | – | – | – | – | – | migrated the transfectants | produced migration | – | – | – | – | –
CKβ8-1(25-116): novel NH2-terminal truncated form of CKβ8-1, SEQ ID NO: 16, human recombinant chemokine (protein, listed as Homo sapiens) MLWRRKIGPQMTLSHAAGFHATSADCCISYTPRSIPCSLLESYFETNSECSKPGVIFLTKKGRRFCANPSDKQVQVCMRMLKLDTRIKTRKN | – | – | 0 | 0 | 0 | 0 | no infiltration | migrated the transfectants | produced migration | one fold | migrated in a bell-shaped dose-dependent manner; also recorded: higher than observed with the synthetic peptides WKYMVm and WKYMVM | 30 | robust response | –
CKβ8-1(1-116): alternatively spliced form of CKβ8, 116 amino acids, human recombinant chemokine (protein, listed as Homo sapiens) RVTKDAETEFMMSKLPLENPVLLDMLWRRKIGPQMTLSHAAGFHATSADCCISYTPRSIPCSLLESYFETNSECSKPGVIFLTKKGRRFCANPSDKQVQVCMRMLKLDTRIKTRKN | – | – | – | – | – | – | – | – | – | – | – | – | – | 3-4 fold
